Results on one molecule are retold here after patent publication US20240239881A1 (Innovent, published 2024).

Test [1] has as its target T1, recombinant biotinylated hAngiopoietin-2 protein (R&D, Cat. No.: BT623B/CF) (human, UniProt O15123 19-496, limits assumed, biotinylated (sites not given)).
T1 construct: Bought protein; also called Biotin Ang2; human biotin Ang2 protein
T1 sequence: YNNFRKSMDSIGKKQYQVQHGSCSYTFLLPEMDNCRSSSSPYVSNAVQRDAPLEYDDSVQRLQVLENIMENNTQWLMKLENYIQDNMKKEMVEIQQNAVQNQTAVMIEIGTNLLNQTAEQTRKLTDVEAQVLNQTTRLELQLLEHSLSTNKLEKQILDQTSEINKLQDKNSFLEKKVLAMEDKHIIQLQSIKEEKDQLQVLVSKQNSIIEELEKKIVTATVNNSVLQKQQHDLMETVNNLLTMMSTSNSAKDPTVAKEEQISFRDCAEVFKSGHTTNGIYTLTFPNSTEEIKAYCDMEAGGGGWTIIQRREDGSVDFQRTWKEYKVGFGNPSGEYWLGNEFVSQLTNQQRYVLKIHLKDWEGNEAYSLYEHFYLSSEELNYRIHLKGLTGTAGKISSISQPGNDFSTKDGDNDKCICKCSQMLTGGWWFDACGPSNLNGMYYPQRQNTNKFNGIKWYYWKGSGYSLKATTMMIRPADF
As to the kind of experiment: blocking ELISA: antibody titrated against biotinylated hAng2 (300 ng/ml final); blocked binding to coated hTie2 protein; Avidin-HRP detection. As to the method: The abilities of 81H10, 86E9, 107H7, hz81H10.4, Amhz81H10.4.30, Amhz81H10.4.49, and the control antibodies Nesvacumab and faricimab to block the binding of human Ang2 to hTie2 were determined by ELISA. Faricimab is a bispecific antibody drug undergoing a clinical trial and developed by Roche, which targets both angiopoietin-2 (Ang-2) and VEGF-A.
Then the plate was blocked using 5% BSA for 1 h. The biotinylated antigen, recombinant biotinylated hAngiopoietin-2 protein (R&D, Cat. No.: BT623B/CF), was diluted to 600 ng/ml, and was added into the microtiter plate at 50 μl/well. The antibodies (81H10, 86E9, 107H7, hz81H10.4, Amhz81H10.4.30 and Amhz81H10.4.49) prepared as described above were gradiently diluted with a total of 8 or 12 dilution points starting from the highest concentration, and then added to the microtiter plate at 50 μl/well, and incubated in PBS on ice for 30 min. Then, 50 ul of antigen solution was added to the microtiter plate, in which the final antigen concentration was 300 ng/ml. The plate containing the antigen-antibody mixture was incubated for 90 min. After three washes with PBS, the supernatant was discarded, and Avidin-HRP (Invitrogen) diluted at 1:10000 was added at 100 μl/well, then incubated at room temperature for 30 min. PBS was used to wash the plate six times. Then TMB chromogen solution (solarbio) was added at 100 ul/well to allow for chromogenic reaction for 1 min, then the reaction was terminated with the addition of stop solution (solarbio) at 100 ul/well.
In general terms: An ELISA detects its analyte on a solid surface through an enzyme-linked reagent.

For test [2], the target named is T2, human Ang2 (human, UniProt O15123 19-496, limits assumed).
T2 construct: also called hAng2; h Ang2
T2 sequence: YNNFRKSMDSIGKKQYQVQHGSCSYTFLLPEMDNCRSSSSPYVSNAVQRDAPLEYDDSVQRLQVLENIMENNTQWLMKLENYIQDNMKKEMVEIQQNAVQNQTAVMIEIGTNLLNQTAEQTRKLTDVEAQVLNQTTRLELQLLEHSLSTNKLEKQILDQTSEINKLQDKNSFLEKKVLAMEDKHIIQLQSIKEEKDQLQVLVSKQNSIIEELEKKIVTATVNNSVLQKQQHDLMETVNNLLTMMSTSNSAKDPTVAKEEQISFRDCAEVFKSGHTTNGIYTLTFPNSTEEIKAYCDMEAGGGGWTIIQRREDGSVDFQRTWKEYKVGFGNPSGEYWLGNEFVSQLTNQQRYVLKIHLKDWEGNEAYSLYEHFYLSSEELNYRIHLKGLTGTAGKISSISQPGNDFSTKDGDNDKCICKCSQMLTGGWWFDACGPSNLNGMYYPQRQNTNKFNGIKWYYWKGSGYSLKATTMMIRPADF
Kind of test: SPR, Biacore T200, antibody captured on Protein G chip, experiment 3. The procedure: (§1) The antibody was diluted to 1 μg/mL and was captured onto channel 2 for 30 s, and channel 1 was the blank control channel. The gradient-diluted Human ANG2, Rhesus ANG2, Rabbit ANG2, Rat ANG2 and Mouse ANG2 were sequentially injected into channels 1 and 2 of the chip, from low to high concentrations (0-32 nM), at a flow rate of 30 μL/min, with one concentration per cycle, and with 180 s association time and 1200 s dissociation time at 25° C. Finally, the chip was regenerated using Glycine pH 1.5 at 30 μL/min for 30 s. The affinity assay was repeated three times.
Background: Surface plasmon resonance follows binding to a sensor surface in real time, without labels.

Test [3] deals with T3, Rhesus ANG2 (rhesus, UniProt F6QXG0 19-496).
T3 sequence: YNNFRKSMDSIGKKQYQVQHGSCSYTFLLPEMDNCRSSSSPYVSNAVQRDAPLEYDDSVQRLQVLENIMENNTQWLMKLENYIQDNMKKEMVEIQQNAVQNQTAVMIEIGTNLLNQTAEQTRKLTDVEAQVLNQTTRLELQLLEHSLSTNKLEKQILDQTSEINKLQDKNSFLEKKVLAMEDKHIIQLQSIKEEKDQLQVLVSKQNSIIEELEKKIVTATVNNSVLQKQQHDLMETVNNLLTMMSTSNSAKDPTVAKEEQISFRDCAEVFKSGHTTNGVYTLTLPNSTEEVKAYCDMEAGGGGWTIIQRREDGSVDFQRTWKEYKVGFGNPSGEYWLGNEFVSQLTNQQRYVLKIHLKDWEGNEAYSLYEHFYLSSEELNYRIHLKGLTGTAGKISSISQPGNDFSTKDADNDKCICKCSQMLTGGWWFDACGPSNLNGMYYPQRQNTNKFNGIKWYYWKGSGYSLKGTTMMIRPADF
The test is described as above. The procedure: as §1

Test [4] concerns the target T4, Rabbit ANG2 (rabbit, UniProt G1T9B3 19-496).
T4 sequence: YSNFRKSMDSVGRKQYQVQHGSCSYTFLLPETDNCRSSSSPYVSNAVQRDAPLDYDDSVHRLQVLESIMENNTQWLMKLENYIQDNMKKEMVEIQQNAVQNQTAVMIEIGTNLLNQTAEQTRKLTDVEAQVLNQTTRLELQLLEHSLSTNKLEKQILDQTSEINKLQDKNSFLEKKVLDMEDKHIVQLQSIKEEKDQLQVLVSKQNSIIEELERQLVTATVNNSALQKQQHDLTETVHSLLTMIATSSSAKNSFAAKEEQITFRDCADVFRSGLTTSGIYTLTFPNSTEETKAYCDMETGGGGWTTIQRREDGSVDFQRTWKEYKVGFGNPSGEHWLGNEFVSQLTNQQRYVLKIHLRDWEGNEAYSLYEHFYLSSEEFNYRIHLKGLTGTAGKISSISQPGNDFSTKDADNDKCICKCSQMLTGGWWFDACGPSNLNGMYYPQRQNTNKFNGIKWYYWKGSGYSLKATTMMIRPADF
The test is described as above. The procedure: as §1

Test [5] concerns the target T2, human Ang2. Kind of test: SPR, Biacore T200, mean of three experiments. As to the method: as §1
Test [6] concerns the target T3, Rhesus ANG2. Kind of test: SPR, Biacore T200, mean of three experiments. The procedure: as §1
The target in test [7] is T4, Rabbit ANG2. As to the kind of experiment: SPR, Biacore T200, mean of three experiments. As to the method: as §1

B1: humanized antibody hz81H10.4 (antibody, human IgG1, kappa, V domains shown)
VH: EVQLVESGGGLVKPGGSLRLSCAASGFTFSNYWMNWVRQAPGKGLEWVAEIRLKSNNYATHYAESVKGRFTISRDVSKNTVYLQMNSLKTEDTAVYYCTDTAPFAYWGQGTLVTVSS
VL: DIQMTQSPSSLSASVGDRVTITCKASQDVGTDVAWYQQKPGKAPKLLIYWASTRHTGVPSRFSGSGSGTDFTLTISSLQPEDFATYYCQQYSSYPLTFGGGTKVEIKR
notes: also called IBI335
Consider B1, for which the 50% inhibitory concentration (IC50) in test [1] came out at 0.728 nM. Further, the Kd worked out at 0.0357 nM with human Ang2 [2]; 0.13 nM with Rhesus ANG2 [3]; 0.446 nM with Rabbit ANG2 [4]; 0.0457 nM in the test with human Ang2 [5]; 0.146 nM with Rhesus ANG2 [6]; 0.48 nM with Rabbit ANG2 [7]. The koff in the test with human Ang2 [2] worked out at 1.05e-05 s⁻¹; with Rhesus ANG2 [3], 4.03e-05 s⁻¹; with Rabbit ANG2 [4], 0.000144 s⁻¹. Moreover, the kon with human Ang2 [2] is 293000 M⁻¹ s⁻¹; with Rhesus ANG2 [3], 311000 M⁻¹ s⁻¹; with Rabbit ANG2 [4] it was 322000 M⁻¹ s⁻¹.

What is called IC50 is the point on the concentration scale where inhibition reaches its midpoint. By Kd is commonly meant the concentration at which binding is half-saturated. In general, koff refers to the first-order rate constant of dissociation. One may read the kon as the second-order rate constant of association. Read a high kon as faster complex formation.
